Reference: paper PMC12000397, “Mechanism of client loading from BiP to Grp94 and its disruption by select inhibitors” (Nature Communications, 2025)
“And” between values parts separate entries of the source, which are not always exact repeats. Identical values can stand only once. Ends that are not written are not given here.

B1: FITC-labeled proIGF2_(25-120) (domain or fragment)
chain: AYGPGETLSGGELVDTLQFVSSDRGFYFSRPSSRANRRSRGIVEECSFRSSDLALLETYSATPAKSERDVSTSQAVLPDDFPRYPVGKFFQYDTWR
modifications: FITC (maleimide) on Cys70
B2: proIGF2_(92-120) fragment (Ext. Site 1), FITC-labeled (domain or fragment, UniProt P01344 92-120, looked up)
chain: RDVC(FITC maleimide)TPPTVLPDNFPRYPVGKFFQYDTWK
notes: proIGF2 residues 92-120, cysteine mutation at Ser95; also called extended site 1; source: purified from inclusion bodies (8 M urea; ion exchange and/or Ni-NTA, denaturing)
B3: M86C Grp94 (natural protein, mouse, UniProt P08113 72-765, looked up)
chain: KSEKFAFQAEVNRMCKLIINSLYKNKEIFLRELISNASDALDKIRLISLTDENALAGNEELTVKIKCDKEKNLLHVTDTGVGMTREELVKNLGTIAKSGTSEFLNKMTEAQEDGQSTSELIGQFGVGFYSAFLVADKVIVTSKHNNDTQHIWESDSNEFSVIADPRGNTLGRGTTITLVLKEEASDYLELDTIKNLVRKYSQFINFPIYVWSSKTTVWDWELMNDIKPIWQRPSKEVEEDEYKAFYKSFSKESDDPMAYIHFTAEGEVTFKSILFVPTSAPRGLFDEYGSKKSDYIKLYVRRVFITDDFHDMMPKYLNFVKGVVDSDDLPLNVSRETLQQHKLLKVIRKKLVRKTLDMIKKIADEKYNDTFWKEFGTNIKLGVIEDHSNRTRLAKLLRFQSSHHSTDITSLDQYVERMKEKQDKIYFMAGSSRKEAESSPFVERLLKKGYEVIYLTEPVDEYCIQALPEFDGKRFQNVAKEGVKFDESEKTKESREATEKEFEPLLNWMKDKALKDKIEKAVVSQRLTESPCALVASQYGWSGNMERIMKAQAYQTGKDISTNYYASQKKTFEINPRHPLIRDMLRRIKEDEDDKTVMDLAVVLFETATLRSGYLLPDTKAYGDRIERMLRLSLNIDPEAQVEEEPEEEPED
notes: Grp94, mouse, residues 72-765 with the charged linker removed (Δ287-328), M86C for a designed disulfide bond; also called Grp94_(M86C); source: E. coli BL21, purified (Ni-NTA, anion exchange, SEC); not shown: His6, N-terminal, cleaved
B4: Mouse BiP (residues 27-655) (natural protein)
chain: not shown
notes: BiP, mouse, residues 27-655; also called full-length BiP; source: E. coli BL21, purified (Ni-NTA, anion exchange, SEC); not shown: His6, N-terminal, cleaved
B5: Grp94 MD (domain or fragment)
chain: NDIKPIWQRPSKEVEEDEYKAFYKSFSKESDDPMAYIHFTAEGEVTFKSILFVPTSAPRGLFDEYGSKKSDYIKLYVRRVFITDDFHDMMPKYLNFVKGVVDSDDLPLNVSRETLQQHKLLKVIRKKLVRKTLDMIKKIADEKYNDTFWKEFGTNIKLGVIEDHSNRTRLAKLLRFQSSHHSTDITSLDQYVERMKEKQDKIYFMAGSSRKEAESSPFVERLLKKGYEVIYLTEPVDEYCIQALPEFDGKRFQNVAKE

Experiments:
[1] = biological target: T1, BiP/Grp94 (mouse, UniProt P20029 27-655; P08113 72-765, Δ287-328); assay: fluorescence polarisation; FITC-labeled client preincubated with BiP, Grp94 then added; BiP and Grp94 varied together (Fig. 6A, B; apparent) or 5 μM BiP and 5 μM Grp94 monomer (ΔP, Fig. 6C), with and without inhibitors; ADP conditions; 60 mM HEPES pH 7.0, 50 mM KCl, 5 mM MgCl2, 1 mM DTT, 0.75 mg/mL BSA, 1 mM ADP, 30 °C; details: both partners purified
T1 construct: BiP, mouse, residues 27-655; Grp94, mouse, residues 72-765 with the charged linker removed (Δ287-328); also called BiP and Grp94; source: E. coli BL21, each purified (Ni-NTA, anion exchange, SEC), mixed; not shown: His6, N-terminal, cleaved; copies: + 2

[2] = biological target: B4; assay: fluorescence polarisation; 50 nM FITC-labeled client construct, BiP alone or Grp94 alone titrated; ADP conditions; 60 mM HEPES pH 7.0, 50 mM KCl, 5 mM MgCl2, 5% or 0% DMSO, 1 mM DTT, 0.75 mg/mL BSA, 1 mM ADP, 30 °C; single-site fit; details: both partners purified
[3] = biological target: the molecule itself; assay: cross-linking; 1 μM M86C Grp94 dimer, 50 mM KCl, 50 mM Tris pH 8, 4% DMSO, with or without 5 μM BiP NBD and 50 μM inhibitor; disulfide formed with 10 mM oxidized glutathione, 25 °C, 2 h; SDS-PAGE
[4] = biological target: T2, Grp94 (residues 72-765) with the charged-linker removed (Δ287-328) (mouse, UniProt P08113 72-765, Δ287-328); assay: fluorescence polarisation; FITC-labeled client preincubated with BiP, Grp94 then added; BiP and Grp94 varied together (Fig. 6A, B; apparent) or 5 μM BiP and 5 μM Grp94 monomer (ΔP, Fig. 6C), with and without inhibitors; ADP conditions; 60 mM HEPES pH 7.0, 50 mM KCl, 5 mM MgCl2, 1 mM DTT, 0.75 mg/mL BSA, 1 mM ADP, 30 °C; details: both partners purified
T2 construct: Grp94, mouse, residues 72-765 with the charged linker removed (Δ287-328); also called wild-type Grp94; source: E. coli BL21, purified (Ni-NTA, anion exchange, SEC); not shown: His6, N-terminal, cleaved

[5] = biological target: T3, FITC-labeled BiP NBD (mouse, FITC on Cys27 (D27C)); assay: fluorescence polarisation; 50 nM FITC-labeled BiP NBD constructs, Grp94 or Grp94 MD titrated; 25 mM Tris pH 7.5, 50 mM KCl, 1 mM ADP (hexokinase-treated), 1 mM DTT; single-site binding fit; details: both partners purified
T3 construct: also called FITC-NBD; D27C BiP; source: E. coli BL21, purified

[6] = biological target: T4, FITC-labeled BiP_(D187A) NBD (mouse, FITC on Cys27 (D27C)); assay: as above; details: both partners purified
T4 construct: interface II mutant; also called FITC-D187A NBD; source: E. coli BL21, purified

T1 sequence (P20029 27-655, stated change not applied, one chain of several): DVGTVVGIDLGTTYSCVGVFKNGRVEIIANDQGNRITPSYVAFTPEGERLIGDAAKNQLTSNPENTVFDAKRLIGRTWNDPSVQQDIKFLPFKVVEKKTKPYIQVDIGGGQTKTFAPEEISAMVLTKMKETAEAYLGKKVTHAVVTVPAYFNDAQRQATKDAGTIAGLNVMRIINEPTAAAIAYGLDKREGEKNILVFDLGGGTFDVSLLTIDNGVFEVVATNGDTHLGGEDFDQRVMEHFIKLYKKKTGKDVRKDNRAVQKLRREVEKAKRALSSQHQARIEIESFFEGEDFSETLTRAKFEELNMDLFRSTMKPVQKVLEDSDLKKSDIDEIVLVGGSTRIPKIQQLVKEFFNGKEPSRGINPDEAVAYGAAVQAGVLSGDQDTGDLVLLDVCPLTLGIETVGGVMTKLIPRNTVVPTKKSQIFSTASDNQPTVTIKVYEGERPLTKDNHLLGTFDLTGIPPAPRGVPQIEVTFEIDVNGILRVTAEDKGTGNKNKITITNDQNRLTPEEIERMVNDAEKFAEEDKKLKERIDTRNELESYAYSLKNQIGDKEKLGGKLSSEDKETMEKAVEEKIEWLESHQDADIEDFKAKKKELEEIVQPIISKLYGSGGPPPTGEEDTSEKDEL

Binder: B1
Kd [1]: 1100 ± 200 nM
Kd [2]: 1500 nM and 2500 nM

Binder: B2
Kd [2]: 1900 ± 500 nM

Binder: B3
binding result [3]: binds

Binder: B4
binding result [4]: binds

Binder: B5
Kd [5]: 5800 ± 1200 nM
Kd [6]: 6500 ± 700 nM
